The values that follow come from the nanobody polyreactivity screen of Harvey et al. (2022).

The data set in a line: yeast display, Sf9 membrane polyspecificity reagent, FACS + sequencing; frameworks hold sequencing errors. In short, it runs like this:
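A synthetic nanobody library was expressed on Saccharomyces cerevisiae BJ5465 by galactose induction for 36–48 hours. The library was stained for 1 hour at 4 °C with 10% biotinylated, detergent-solubilized Sf9 membrane reagent and enriched with streptavidin microbeads before FACS. Low and high (top ~1%) gates were set on anti-HA fluorescence for expression and streptavidin fluorescence for reagent binding, and each polyreactivity label reflects the gate of origin.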
For “QVQLVESGGGLVQAGGSLRLSCAASGNIFPRYAMGWYRQATGKERELVAAITWRTSSTYYADSVKGRFTISRDNAKNTVYLQMNSLKPEDTAVYYCAKTSSRIAGEYWGQGTQVTVSS”, the “polyreactivity (PSR sort gate)” value is on record as “low polyreactivity”.
With “QVQLVESGGGLVQAGGSLRLSCAASGNIFQKYAMGWYRQAPGKERELVAAIRRGDRTYADSVKGRFTISRDNAKNTVYLQMISLKPEDTAVYYCAAPQVWWGYYTRGVDYWGQGTQVTVSS”, the “polyreactivity (PSR sort gate)” value is listed as “low polyreactivity”.
For the sequence “QVQLVESGGGLVQAGGSLRLSCAASGNIFRPYTMGWNRQEPGKERELVARISSGGSTNYADSVKGRFTISRDNAKNTVYFQMNSLKPEDTAVYYCAKRYGTVHSRYGYWGQGTQVTVSS”, the “polyreactivity (PSR sort gate)” value is listed as “high polyreactivity”.
For the sequence “QVQLVESGGGLVQAGGSLRLSCAASGNIFRPYTMGWYRQAPGKERELVARISSGGSTNYADSVKGRFTISRDNAKNTVNLQMNSLKPEDTAVYYCAKRYGTVHSRYGYWGQGTQVTVSS”, the “polyreactivity (PSR sort gate)” value is recorded as “high polyreactivity”.
The entry for “QVQLVESGGGLVQAGGSLRLSCAASGNIFRTYAMGWYRQAPGKERELVAAISRGGRTYYADSVKGRFTISRDNAKNSVYLQMNSLKPVDTAVYYCNVQPDRISRYDYWGQGTQVTVSS” is “high polyreactivity”.
The entry for “QVQLVESGGGLVQAGGSLRLSCAASGNIFRYYAMGWYRQSPGKERELVAAITRSGGSTYADSVKGRFTISRDNAKNTVYLQMNSLKPEDTAVYYCAAVGYRYFTIYDYWGQGTQVTVSS” is “low polyreactivity”; for “QVQLVESGGGLVQAGGSLRLSCAASGNIFSDNAMGWYRQAPGKERELVAAITASTSDTYYADSVKGRFTISRDNAKNSVYLQMNSLKPEDTAVYYCAADSRGFQLFDYWGQGTQVTVSS” it is “low polyreactivity”; for “QVQLVESGGGLVQAGGSLRLSCAASGNIFSFYAMGWNRPAPGKERELVAAINWSGGDTYYADSVKGRFTISRDNAKNTVYLQMNSLKPEDTAVYYCAAEYYYQYYPGGYDYWGQGTQVTVSS” it is “high polyreactivity”.
Consider “QVQLVESGGGLVQAGGSLRLSCAASGNIFSSNAMGWYRHAPGKEREVVAAITRSGGSTYYADSVKGRFTISRDNAKNTVYLQMNSLKPEDTAVYYCAAGKPRSKYWYDYWGQGTQVTVSS”, for which the “polyreactivity (PSR sort gate)” value was “high polyreactivity”.
Consider “QVQLVESGGGLVQAGGSLRLSCAASGNIFSSNAMGWYRQAPGKERELVAAISASGGNTYYADSVKGRFTISRDNAKNTVYLQINSLKPEDTAVYYCNAYRGGYLRRGYYYWGQGSQVTVSS”, for which the “polyreactivity (PSR sort gate)” value is on record as “high polyreactivity”.
The value for “QVQLVESGGGLVQAGGSLRLSCAASGNIFSTYAMGWYRQAPGKERELVAAISKSGGRTYYADSVKGRFTISRDNAKNTVYLQMNSLKPEDTAVYYCNKRYQHGISFGYGYWGQGTQVTVSS” was “high polyreactivity”; that for “QVQLVESGGGLVQAGGSLRLSCAASGNIFSWNTMGWYRQAPGKERELVAAITYRGTRTFYADSVKRRFTISRDNAKNTVYLQMNSLKPEDTEVYYCAATRYAPYRRYYYWGQGTQVTVSS” was “high polyreactivity”.
For the sequence “QVQLVESGGGLVQAGGSLRLSCAASGNIFTFNAMGWYRQAPGKERELVAAIRSGGSTNYADSVKGRFTISRDNAKNTVYLQMNSLKPEDTAVYYCAAKRYVQGYVYRYGYWGQGTQVTVSS”, the “polyreactivity (PSR sort gate)” value was “high polyreactivity”.
For “QVQLVESGGGLVQAGGSLRLSCAASGNIFTSYAMGWYRQAPGKERELVAAISSGGRTSYADSVKGRFTISRDNAKNTVYLEMNSLKPEDNAVYYCAAYYRRWQREYYYWGQGTKVTVSS”, the “polyreactivity (PSR sort gate)” value is listed as “high polyreactivity”.
The entry for “QVQLVESGGGLVQAGGSLRLSCAASGNIFTYYVRGWYRQEPGKERELVAAISRRGGSTYYADSVKGRFTISRDFAKNTVYLQMNSLKPEDTAVYYCAKKYPRDMDYWGQGTQVTVSS” is “high polyreactivity”; for “QVQLVESGGGLVQAGGSLRLSCAASGNIFVFYVMGWYRPAPGKERELVASISSTGNTYYADSVKGRFTISRDNAKNTVYLQMNSLKPEDTAVYYCNADPIFVYSSYNYWGQGTQVTVSS” it is “low polyreactivity”.
With “QVQLVESGGGLVQAGGSLRLSCAASGNIFVNYAMGWYRQAPGKERELVASINYNGGNTYYADSVKGRFTISRDNAKNTVYLQMNSLKPEDTAVYYCAKDGGGLLRWYTDEYDYWGQGTQVNVSS”, the “polyreactivity (PSR sort gate)” value was “low polyreactivity”.
Consider “QVQLVESGGGLVQAGGSLRLSCAASGNIFVSYDLGWYRQAPGKERELVAAISWRGGSTYYADSVKGRFTNSRDNAKNTVFLKMNSLKPEDTAVYYCSVDDWLDWLFADFGYWGQGTQVTVSS”, for which the “polyreactivity (PSR sort gate)” value is listed as “low polyreactivity”.
The entry for “QVQLVESGGGLVQAGGSLRLSCAASGNIFVYNAMGWYRQAPGKERELVAAISWTGGSTYYADSVKGRFTISRDNAKNTVYLQMNSLKPEDTAVYYCAKSFGIWHARWLTYDYWGQGTQVTVSS” is “low polyreactivity”; for “QVQLVESGGGLVQAGGSLRLSCAASGNIFYINAMGWYRQAPGKERELVAAISSGGRTNYADSVKGRFTISRDNAKNTVYLQMNSLKPEDTAVYYCGAEGPEIKYYYWGQGTQVTVSL” it is “low polyreactivity”.
In the case of “QVQLVESGGGLVQAGGSLRLSCAASGNIFYINTMGWYRQAPGKERELVAAIDASDGSTYYADSVKGRFTISRDNAKNSVYLQMYSLKPEDTAVYYCASRRGYDSVYYFYTLWYYYWGQGTQVTVSS”, the “polyreactivity (PSR sort gate)” value was “low polyreactivity”.
For “QVQLVESGGGLVQAGGSLRLSCAASGNIFYQYAMGWYRQAPGKDREFVAAISISGTSTYADSVKGRFTISRDNAKNTVYLQMNSLKPEDTAVYWGQGTQVTVSS”, the “polyreactivity (PSR sort gate)” value is listed as “low polyreactivity”.
The value for “QVQLVESGGGLVQAGGSLRLSCAASGNIFYRYAMGWYRQAPGKERELVAAISGNSGNTYYADSVKGRFTISRDIAKNTVYLQMNSLKPEDTAVYYCAAERRAFGHYSWGQGTQVTVSS” was “high polyreactivity”.
Regarding “QVQLVESGGGLVQAGGSLRLSCAASGNIFYVYAMGWYRQAPGKERELVATITWRGGNTYYADSVKGRFTISRDNAKNTVDLQMNSLTPEDTAVYYCAAYVGYTRAYIGQFYAYDYWGQGTQVTVSS”, the “polyreactivity (PSR sort gate)” value is listed as “low polyreactivity”.
For the sequence “QVQLVESGGGLVQAGGSLRLSCAASGNILASNGMGLYRQAPGKERELVAAITYSGGSTYYADSVKGRFTISRDNAKNTVYLQMNSLKPEDTAVYDCAARYYYGRRYDYWGQGTQVTVSS”, the “polyreactivity (PSR sort gate)” value was “low polyreactivity”.
“QVQLVESGGGLVQAGGSLRLSCAASGNILAWYAMGWYRQAPGKERELVADISSRGGSTYYADSVKRRFTISRDNAKYTVYLQMKSLKPEDTAVYYCAAVWYWNQDYEYWGQGTQVTVSS”: the “polyreactivity (PSR sort gate)” value is recorded as “low polyreactivity”.
With “QVQLVESGGGLVQAGGSLRLSCAASGNILHYYTMGLYRQAPGKETELVARINYSTGSTYYADSVKGRFTISRDNAKNTVYLQMNSLKPEDTAVYYCAAEKERDEEYDYWGQGTQVTVSS”, the “polyreactivity (PSR sort gate)” value is “low polyreactivity”.
The entry for “QVQLVESGGGLVQAGGSLRLSCAASGNILIGNVMGWYRQAPGKERELVAAITSGGDTYYADSVKGRFTISRDNAKNTVYLQMNSLKPEDTAVYYCNAYYYFWGQGTQVTVSS” is “low polyreactivity”; for “QVQLVESGGGLVQAGGSLRLSCAASGNILRYAMGWYRQAPGKERELVARISWRGGSTYYADSVKGRFTISRDNAKNTVYLQMNSLKPEDTAVYYCNKAYLGGGWQKTYDYWGQGTQVTVSS” it is “high polyreactivity”; for “QVQLVESGGGLVQAGGSLRLSCAASGNILYANAMGWYRQAPGKERELVATINVSADSTYADSVKGRFTISRDNAKNTVYLQMNRLNPEDTAVYYCNAYGLYEKWGPWTVPYYYWGQVTQVTVSS” it is “low polyreactivity”.
For the sequence “QVQLVESGGGLVQAGGSLRLSCAASGNILYDNAMGSYRQAPGKERELVAAIDWSGGSTYYADSVKGRFTISRDNAKNTVYLQMNSLKPEDTAVYYCAAESYIGKYGSYDYWGLGTQVTVSS”, the “polyreactivity (PSR sort gate)” value is reported as “low polyreactivity”.
For the sequence “QVQLVESGGGLVQAGGSLRLSCAASGNILYFYDMGRYRQAPGKERELVAVITGGGGSTYYADSVKGRYTISRDNAKNTVYLQMNRLKPEDTAVYYWAALPWFPDEEYDYWGHGTQVTVSS”, the “polyreactivity (PSR sort gate)” value is “high polyreactivity”.
In the case of “QVQLVESGGGLVQAGGSLRLSCAASGNISWYNAMGWYRQAPGKERELVAAITSSGSGTYYADSVKGRFTISRDNAKHTVYLQMNSLKPEDTAVYYCIADNAIRYDYWGQGTQVTVSS”, the “polyreactivity (PSR sort gate)” value is given as “high polyreactivity”.
For “QVQLVESGGGLVQAGGSLRLSCAASGNIVGSNAMGWYRQAPGKERELVAAISKSGGRTYYADSVKGRFTISRDNAKNTVYLQMNSLKPEDTAVYYCAAYDGYYEFDYWGQGTQVTVSS”, the “polyreactivity (PSR sort gate)” value is listed as “low polyreactivity”.
For the sequence “QVQLVESGGGLVQAGGSLRLSCAASGNIYRYYVMGWYRQAPGKEREFVAAITSSGGSTYYADSVKGRFTISRDNAKNTVYLQMNSLKPEDTAVFYCAKDYGDPGWAEYDYWGQGTQVTVSS”, the “polyreactivity (PSR sort gate)” value is “low polyreactivity”.
In the case of “QVQLVESGGGLVQAGGSLRLSCAASGNMFGYYAMGWYRQAPGKERELVARITSGGTTNYADSVKGRFTISRDNAKNTVYLQMNRLKPEDTAVYYCNKDWRRYWLRGDYWGQGTQVTVSS”, the “polyreactivity (PSR sort gate)” value is reported as “low polyreactivity”.
Consider “QVQLVESGGGLVQAGGSLRLSCAASGNNFGNNAMGWYRQAPGKERELVAAISSSGTSTYYADSVKGRFTISRDNAKNTVYLQMNSLKPEDTSVYYCNADPLPYDGYYDYDYWGQGTEVTVSS”, for which the “polyreactivity (PSR sort gate)” value is listed as “low polyreactivity”.
“QVQLVESGGGLVQAGGSLRLSCAASGNSFYFYAMGWYRQAPGKERELVAAIDLTDGSTYYADSVKGRFTISRDNAKNTVYLQMNSLKPEDTAVYYCAADWVTFYSYTEYDYWGLGTQVTVSS”: the “polyreactivity (PSR sort gate)” value is reported as “low polyreactivity”.
Regarding “QVQLVESGGGLVQAGGSLRLSCAASGNSFYSYAMGRYRQAPGKERELVAAITIDGSTTYADSVKGRFTISRDNAKNTVYLQMNSLKPEDTAVSYCNADGFTSDPYDSDDWGQGTLVTVSS”, the “polyreactivity (PSR sort gate)” value is reported as “low polyreactivity”.
With “QVQLVESGGGLVQAGGSLRLSCAASGNTFAYNTMGWYRQAPGKERELVAAIRTRGGSTYYADSVKGRFTISRDNAKNTVYLQMNSLKPEDTAVYYCAADYRYHGYWSYDYWGQGTQVTVSS”, the “polyreactivity (PSR sort gate)” value is given as “low polyreactivity”.
For “QVQLVESGGGLVQAGGSLRLSCAASGNTFDGYDMGWYRQAPGKERELVAAITNTGASTYYADSVKGRFTISRDNAKNTVYLQMNSLKPEDTAVYYCNAQDSYPEDRHGMSYWGQGTQVTVSS”, the “polyreactivity (PSR sort gate)” value is listed as “low polyreactivity”.
